Key:
[1] = target: HLA-B*27:05; test: IEDB peptide-MHC binding, purified MHC/competitive/fluorescence; ≥ and ≤ were set here for values at or beyond the usual limits of such assays; conditions: source organism: hepatitis C virus genotype 1a
[2] = target: HLA-B*46:01; test: IEDB peptide-MHC binding, cellular MHC/competitive/fluorescence; ≥ and ≤ were set here for values at or beyond the usual limits of such assays; conditions: source organism: Human herpesvirus 4 strain B95-8
[3] = target: HLA-A*29:02; test: IEDB peptide-MHC binding, purified MHC/competitive/radioactivity; ≥ and ≤ were set here for values at or beyond the usual limits of such assays; conditions: source organism: Human papillomavirus 16
[4] = target: HLA-B*35:01; test: IEDB peptide-MHC binding, cellular MHC/competitive/fluorescence; ≥ and ≤ were set here for values at or beyond the usual limits of such assays; conditions: source organism: Mycobacterium tuberculosis H37Rv
[5] = target: HLA-B*15:02; test: IEDB peptide-MHC binding, purified MHC/competitive/fluorescence; filed as Kd, often an IC50 or EC50 that approximates it; ≥ and ≤ were set here for values at or beyond the usual limits of such assays
[6] = target: HLA-C*06:02; test: as above; conditions: source organism: Burkholderia pseudomallei 406e
[7] = target: HLA-B*15:42; test: as above; conditions: source organism: Burkholderia pseudomallei 406e
[8] = target: HLA-B*40:13; test: as above; conditions: source organism: Burkholderia pseudomallei 406e
[9] = target: HLA-A*32:15; test: as above; conditions: source organism: Burkholderia pseudomallei 406e
[10] = target: HLA-B*83:01; test: as above; conditions: source organism: Burkholderia pseudomallei 406e
[11] = target: HLA-A*68:23; test: as above; conditions: source organism: Burkholderia pseudomallei 406e
[12] = target: HLA-B*45:06; test: as above; conditions: source organism: Burkholderia pseudomallei 406e
[13] = target: HLA-A*29:02; test: as above; conditions: source organism: Burkholderia pseudomallei 406e
[14] = target: HLA-B*27:20; test: as above; conditions: source organism: Burkholderia pseudomallei 406e
[15] = target: HLA-C*07:02; test: IEDB peptide-MHC binding, purified MHC/direct/fluorescence; filed as Kd, often an IC50 or EC50 that approximates it; ≥ and ≤ were set here for values at or beyond the usual limits of such assays; conditions: source organism: Burkholderia pseudomallei 406e
[16] = target: HLA-C*14:02; test: as above; conditions: source organism: Burkholderia pseudomallei 406e
[17] = target: HLA-C*15:02; test: as above; conditions: source organism: Burkholderia pseudomallei 406e
[18] = target: HLA-B*15:01; test: as above
[19] = target: HLA-B*07:02; test: as above
[20] = target: HLA-A*02:01; test: as above
[21] = target: HLA-A*01:01; test: as above
[22] = target: HLA-B*27:05; test: as above
[23] = target: HLA-A*03:01; test: as above; conditions: source organism: Pasteurella multocida
[24] = target: HLA-A*11:01; test: as above
[25] = target: HLA-B*08:01; test: as above; conditions: source organism: Pasteurella multocida
[26] = target: HLA-A*31:01; test: as above
[27] = target: HLA-B*40:01; test: as above; conditions: source organism: Pasteurella multocida
[28] = target: HLA-A*26:01; test: as above; conditions: source organism: Pasteurella multocida
[29] = target: HLA-B*58:01; test: as above
[30] = target: HLA-B*35:01; test: as above
[31] = target: HLA-A*69:01; test: as above
[32] = target: HLA-B*27:04; test: IEDB peptide-MHC binding, cellular MHC/competitive/fluorescence; ≥ and ≤ were set here for values at or beyond the usual limits of such assays; conditions: source organism: Human herpesvirus 4 strain B95-8
[33] = target: HLA-A*11:01; test: IEDB peptide-MHC binding, purified MHC/competitive/fluorescence; filed as Kd, often an IC50 or EC50 that approximates it; ≥ and ≤ were set here for values at or beyond the usual limits of such assays; conditions: source organism: Yersinia pestis KIM10+
[34] = target: HLA-A*26:01; test: as above; conditions: source organism: Yersinia pestis KIM10+
[35] = target: HLA-B*46:01; test: IEDB peptide-MHC binding, purified MHC/direct/fluorescence; filed as Kd, often an IC50 or EC50 that approximates it; ≥ and ≤ were set here for values at or beyond the usual limits of such assays
[36] = target: HLA-B*15:09; test: as above; conditions: source organism: Yersinia pestis KIM10+
[37] = target: HLA-B*48:01; test: as above
[38] = target: HLA-B*15:02; test: as above
[39] = target: HLA-B*39:01; test: as above; conditions: source organism: Yersinia pestis KIM10+
[40] = target: HLA-B*08:02; test: as above
[41] = target: HLA-A*24:02; test: IEDB peptide-MHC binding, cellular MHC/competitive/fluorescence; ≥ and ≤ were set here for values at or beyond the usual limits of such assays; conditions: source organism: Human herpesvirus 5 strain AD169
[42] = target: HLA-B*73:01; test: IEDB peptide-MHC binding, purified MHC/competitive/fluorescence; filed as Kd, often an IC50 or EC50 that approximates it; ≥ and ≤ were set here for values at or beyond the usual limits of such assays; conditions: source organism: Yersinia enterocolitica subsp. enterocolitica 8081
[43] = target: HLA-B*15:17; test: as above; conditions: source organism: Vaccinia virus WR
[44] = target: HLA-A*26:02; test: as above; conditions: source organism: Vaccinia virus WR
[45] = target: HLA-A*68:02; test: IEDB peptide-MHC binding, purified MHC/direct/fluorescence; filed as Kd, often an IC50 or EC50 that approximates it; ≥ and ≤ were set here for values at or beyond the usual limits of such assays; conditions: source organism: Camelpox virus M-96
[46] = target: HLA-B*57:01; test: as above; conditions: source organism: Camelpox virus M-96
[47] = target: HLA-A*26:03; test: as above; conditions: source organism: Variola virus
[48] = target: HLA-B*15:03; test: IEDB peptide-MHC binding, purified MHC/competitive/radioactivity; filed as Kd, often an IC50 or EC50 that approximates it; ≥ and ≤ were set here for values at or beyond the usual limits of such assays; conditions: source organism: Vaccinia virus WR
[49] = source organism: Pasteurella multocida
[50] = source organism: Yersinia pestis
[51] = source organism: Yersinia pestis KIM10+
[52] = source organism: Camelpox virus M-96

GKAVICGKY
IC50 [1]: 4.67 µM

HAMHISTGL
IC50 [2]: 5 µM

IFVYIPLFL
IC50 [3]: 0.444 µM

MPVGGQSSFY
IC50 [4]: 0.3 µM

MQLPQGGAF
Kd ([5]; source organism: Burkholderia pseudomallei K96243): 0.0235 µM

MSWGWRLPF
Kd [6]: 0.387 µM | Kd [7]: ≥ 5 µM | Kd [8]: 0.223 µM | Kd [9]: 0.005 µM | Kd [10]: 5.92 µM | Kd [11]: 0.0802 µM | Kd [12]: ≥ 5 µM | Kd [13]: 0.0161 µM | Kd [14]: 0.0497 µM | Kd [15]: 0.248 µM | Kd [16]: 0.286 µM | Kd [17]: 1.72 µM

SQLEMCEKY
Kd ([5]; source organism: Pasteurella multocida subsp. multocida str. Pm70): 0.0744 µM | Kd [18, 49]: 0.299 µM | Kd [19, 49]: ≥ 20 µM | Kd [20, 49]: ≥ 20 µM | Kd [21, 49]: ≥ 20 µM | Kd [22, 49]: ≥ 20 µM | Kd [23]: ≥ 20 µM | Kd [24, 49]: ≥ 20 µM | Kd [25]: ≥ 20 µM | Kd [26, 49]: ≥ 20 µM | Kd [27]: ≥ 20 µM | Kd [28]: ≥ 20 µM | Kd [29, 49]: ≥ 20 µM | Kd [30, 49]: 0.121 µM | Kd [31, 49]: ≥ 20 µM

SRRTSRPNR
IC50 [32]: 10 µM

STFAASGPF
Kd [33]: ≥ 20 µM | Kd [34]: 0.0192 µM | Kd [18, 50]: 0.007 µM | Kd [35, 50]: 6.19 µM | Kd [19, 50]: ≥ 20 µM | Kd [20, 50]: ≥ 20 µM | Kd [36]: ≥ 20 µM | Kd [37, 50]: ≥ 20 µM | Kd [21, 50]: ≥ 20 µM | Kd [38, 51]: 0.009 µM | Kd [39]: ≥ 20 µM | Kd [22, 50]: ≥ 20 µM | Kd [26, 50]: ≥ 20 µM | Kd [29, 50]: ≥ 20 µM | Kd [30, 51]: 0.045 µM | Kd [40, 51]: ≥ 20 µM

VFPTKDVAL
IC50 [41]: ≥ 333 µM

WDYLVRHDA
Kd [42]: 4.5 µM

YQYIFLSFF
Kd [43]: ≥ 20 µM | Kd [44]: ≥ 20 µM | Kd [18, 52]: 3.06 µM | Kd [45]: ≥ 20 µM | Kd [35, 52]: ≥ 20 µM | Kd [19, 52]: ≥ 20 µM | Kd [20, 52]: ≥ 20 µM | Kd [37, 52]: ≥ 20 µM | Kd [21, 52]: ≥ 20 µM | Kd ([38]; source organism: Variola virus): 1.94 µM | Kd [22, 52]: ≥ 20 µM | Kd [24, 52]: ≥ 20 µM | Kd [26, 52]: ≥ 20 µM | Kd [29, 52]: ≥ 20 µM | Kd [46]: ≥ 20 µM | Kd ([40]; source organism: Variola virus): ≥ 20 µM | Kd [47]: ≥ 20 µM | Kd [31, 52]: ≥ 20 µM | Kd [48]: 0.000944 µM

Reference: the Immune Epitope Database (IEDB)
